From patent US20260209362A1 (VIB VZW, published 2026)
Numbering of substitutions follows the chain as printed.

T1: biotinylated recombinant human IL-12Rβ2 (human, UniProt Q99665 24-622, random biotinylated)
T1 construct: Recombinant protein produced in-house, biotinylated; also called hIL-12RB2; human IL-12RB2
T1 sequence: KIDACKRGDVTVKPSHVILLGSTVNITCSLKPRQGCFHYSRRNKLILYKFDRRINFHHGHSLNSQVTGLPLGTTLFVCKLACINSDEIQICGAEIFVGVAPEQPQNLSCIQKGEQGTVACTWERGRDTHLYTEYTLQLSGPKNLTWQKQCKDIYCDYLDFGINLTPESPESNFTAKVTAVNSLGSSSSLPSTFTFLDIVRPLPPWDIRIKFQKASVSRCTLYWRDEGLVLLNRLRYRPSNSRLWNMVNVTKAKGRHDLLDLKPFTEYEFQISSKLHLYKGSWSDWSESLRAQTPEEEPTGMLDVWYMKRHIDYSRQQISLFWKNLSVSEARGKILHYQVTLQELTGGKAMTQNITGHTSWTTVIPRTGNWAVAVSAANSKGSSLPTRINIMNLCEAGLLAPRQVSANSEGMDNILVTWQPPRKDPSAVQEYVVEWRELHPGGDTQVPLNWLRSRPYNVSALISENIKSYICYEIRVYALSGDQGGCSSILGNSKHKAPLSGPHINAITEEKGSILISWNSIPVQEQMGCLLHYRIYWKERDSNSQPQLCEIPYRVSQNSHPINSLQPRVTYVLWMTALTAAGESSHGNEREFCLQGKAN

T2: biotinylated recombinant mouse IL-12Rβ2 (mouse, UniProt P97378 24-637, random biotinylated)
T2 construct: Recombinant protein produced in-house, biotinylated; also called mIL-12RB2; mouse IL-12RB2
T2 sequence: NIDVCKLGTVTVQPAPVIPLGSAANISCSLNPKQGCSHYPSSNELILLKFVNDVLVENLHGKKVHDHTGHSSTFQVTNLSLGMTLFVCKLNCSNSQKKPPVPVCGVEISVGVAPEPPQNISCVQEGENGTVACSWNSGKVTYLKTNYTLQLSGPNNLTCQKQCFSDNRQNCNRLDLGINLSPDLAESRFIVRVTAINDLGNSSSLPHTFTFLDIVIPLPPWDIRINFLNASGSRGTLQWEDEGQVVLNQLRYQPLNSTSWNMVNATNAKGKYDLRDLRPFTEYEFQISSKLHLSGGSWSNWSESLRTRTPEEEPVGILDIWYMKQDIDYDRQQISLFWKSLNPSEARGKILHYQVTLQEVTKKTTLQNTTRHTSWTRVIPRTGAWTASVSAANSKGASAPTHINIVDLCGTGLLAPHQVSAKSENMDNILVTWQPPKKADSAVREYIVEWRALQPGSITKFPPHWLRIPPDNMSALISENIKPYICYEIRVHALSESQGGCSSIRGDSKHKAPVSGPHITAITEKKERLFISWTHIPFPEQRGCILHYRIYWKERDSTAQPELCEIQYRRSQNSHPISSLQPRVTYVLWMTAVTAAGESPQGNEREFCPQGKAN

T3: biotinylated mouse recombinant IL-12Rβ2 (produced in-house) (mouse, UniProt P97378 24-637, random biotinylated)
T3 construct: Soluble recombinant protein used for panning, ELISA and BLI; also called mIL-12RB2; mIL12RB2
T3 sequence: T2 sequence

T4: biotinylated human recombinant IL-12Rβ2 (produced in-house) (human, UniProt Q99665 24-622, random biotinylated)
T4 construct: Soluble recombinant protein used for panning, ELISA and BLI; also called hIL-12RB2; hIL12RB2
T4 sequence: T1 sequence

T5: human IL-12Rβ2 expressed on cells (human, UniProt Q99665 24-862)
T5 construct: the cell lines are described by plasmid or cDNA number only; also called hIL-12RB2; HEK293T transiently transfected with human IL-12Rβ2
T5 sequence: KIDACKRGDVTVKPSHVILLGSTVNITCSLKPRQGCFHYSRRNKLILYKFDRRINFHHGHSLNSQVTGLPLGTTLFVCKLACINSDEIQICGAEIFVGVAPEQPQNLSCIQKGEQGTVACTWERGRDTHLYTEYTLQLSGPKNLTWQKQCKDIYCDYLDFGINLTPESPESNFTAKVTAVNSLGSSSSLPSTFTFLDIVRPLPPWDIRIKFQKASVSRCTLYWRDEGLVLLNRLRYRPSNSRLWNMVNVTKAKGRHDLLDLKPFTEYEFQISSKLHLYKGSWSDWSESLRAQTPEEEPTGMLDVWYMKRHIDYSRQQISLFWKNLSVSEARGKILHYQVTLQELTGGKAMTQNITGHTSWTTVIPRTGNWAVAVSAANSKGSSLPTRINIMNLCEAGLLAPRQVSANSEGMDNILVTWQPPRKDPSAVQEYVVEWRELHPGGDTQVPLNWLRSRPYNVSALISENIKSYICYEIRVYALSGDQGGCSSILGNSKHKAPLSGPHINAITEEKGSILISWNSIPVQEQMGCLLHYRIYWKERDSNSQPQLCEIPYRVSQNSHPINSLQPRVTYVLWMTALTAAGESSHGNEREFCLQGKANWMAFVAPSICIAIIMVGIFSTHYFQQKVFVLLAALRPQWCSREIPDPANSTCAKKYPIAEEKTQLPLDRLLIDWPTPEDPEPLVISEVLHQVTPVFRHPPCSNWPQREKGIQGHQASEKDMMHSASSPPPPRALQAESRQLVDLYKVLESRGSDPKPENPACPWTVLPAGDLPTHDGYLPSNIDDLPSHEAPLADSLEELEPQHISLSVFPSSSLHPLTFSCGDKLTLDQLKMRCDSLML

B1: anti-IL-12Rβ2 VHH clone 20370 (VHH, not shown: small tags and cut ends)
VHH: QVQLQESGGGLVQTGGSLRLSCVASGRTFNWSAMGWFRQPPGKEREVVATISGGGTSAYYADSVKGRFTISRDGAKNTLYLQMNSLKPEDTAVYYCAADRVDYRMTLTQNGNHYWGQGTQVTVSS
notes: tested as periplasmic extract; also called 2CRH76
B2: anti-IL-12Rβ2 VHH clone 20391 (VHH, not shown: small tags and cut ends)
VHH: QVQLQESGGGLVQAGGSLRLSCAASGRTVDSYAMGWFRQTPGKEREFVAASWGGGSTYYADSVKGRFTISRDNVKNTMYLQMDSLKPEDTAVYYCAAGPTYYSGPINDNWEGRYDSWGQGTQVTVSS
notes: tested as periplasmic extract; also called 3CRH93
B3: anti-IL-12Rβ2 VHH clone 3CRHS128 (clone ID 20432) (VHH)
VHH: QVQLQESGGGLVQPGGSLRLSCAASGFTFSTSGMHWFRQAPGKGLEWVSSIGATVDNSYYASSVKGRFTISRDNAKNTLYLLMNSLKSEDTAVYYCSKDPTGSSRGQGTQVTVSS
notes: Tested as periplasmic extract; not shown: C-terminal HA tag
B4: anti-IL-12Rβ2 VHH clone 20358 (VHH, not shown: small tags and cut ends)
VHH: QVQLQESGGGSVQPGGSLRLSCGASGFTFSSFGMHWFRQAPGKGQEWAATISSSGGTTYYSDSVKGRFTISRDNAKNTLYLQMNSLKPEDTALYYCARDVTGAVRGQGTQVTVSS
notes: tested as periplasmic extract; also called 3CAH34
B5: anti-IL-12Rβ2 VHH clone 20408 (VHH, not shown: small tags and cut ends)
VHH: B4 VHH with P14A, A48V
notes: tested as periplasmic extract; also called 3CAHS172
B6: anti-IL-12Rβ2 VHH clone 3CRHS54 (clone ID 20422) (VHH)
VHH: QVQLQESGGGLVQPGGSLRLSCTASGSIVSIYNMDWYRQAPGNEREWVASITSSGDPYYDGSAKGRFTISRDNAKMTVYLQMNSLEPEDTAVYFCKVPTEKGNYWGQGTQVTVSS
notes: Tested as periplasmic extract (P.E.) from the pMECS vector; not shown: C-terminal HA tag
B7: anti-IL-12Rβ2 VHH clone 3CRHS9 (clone ID 20415) (VHH)
VHH: B6 VHH with E86K, F94Y
notes: Tested as periplasmic extract; also called 3CRMS9; not shown: C-terminal HA tag
B8: anti-IL-12Rβ2 VHH clone 3CRHS51 (clone ID 20421) (VHH)
VHH: QVQLQESGGGLVQPGGSLRLSCAASGFTFSTYAMSWVRQAPGKGLEWVSAVNSGGLSTDYADSVEGRFTISRDDAKNMLFLQMNRLKPEDTARYYCAKYEDCSDYVCDRAGYWGQGTQVTVSS
notes: Tested as periplasmic extract; also called 3CRHSS1; not shown: C-terminal HA tag
B9: anti-IL-12Rβ2 VHH clone 20404 (VHH, not shown: small tags and cut ends)
VHH: QVQLQESGGGLVQAGGSLRLSCAASGRTFSSYAMGWFRQVPGKERDFVAAVSWGGLSTYYADSVEGRFTISRDNAKNTVFLQMNSLKPEDTAVYYCAADRAYEGLGYGEYEYWGQGTQVTVSS
notes: tested as periplasmic extract; also called 3CAHS153
B10: anti-IL-12Rβ2 VHH clone 20389 (VHH, not shown: small tags and cut ends)
VHH: QVQLQESGGGLVRAGGSLRLSCAASGHTFSNYVMGWFRQAPGKEREFVAAISWGGSNTYYADSVKGRFTISRDNAKNTVYLQMNSLKVEDTAVYYCAADRRFEGWNYYSMDYWGKGTQVTVSS
notes: tested as periplasmic extract; also called 3CRH73
B11: anti-IL-12Rβ2 VHH clone 20372 (VHH, not shown: small tags and cut ends)
VHH: QVQLQESGGGLVQAGGSLRLSCAASARTESMYAMAWFRQAPGKEREIVAGIIQSGGTTYISDYMKGRFSIDRGNAENTVYLQMDSLKPEDTAVYSCAAKVSSGTPSDIQISQSRWYDHWGQGTQVTVSS
notes: tested as periplasmic extract; also called 2CRH82

Experiments:
[1] = molecular target: T1, biotinylated recombinant human IL-12Rβ2; assay: ELISA, periplasmic extract on biotinylated hIL-12Rβ2, signal over control wells
[2] = molecular target: T1, biotinylated recombinant human IL-12Rβ2; assay: BLI (Octet), periplasmic extract on biotinylated hIL-12Rβ2 on streptavidin tips, 1:1 model
[3] = molecular target: T1, biotinylated recombinant human IL-12Rβ2; assay: BLI (Octet), periplasmic extract on biotinylated hIL-12Rβ2 on streptavidin tips
[4] = molecular target: T2, biotinylated recombinant mouse IL-12Rβ2; assay: ELISA, periplasmic extract on biotinylated mIL-12Rβ2, signal over control wells
[5] = molecular target: T3, biotinylated mouse recombinant IL-12Rβ2 …; assay: ELISA, periplasmic extract on biotinylated mouse IL-12Rβ2; signal over streptavidin control well
[6] = molecular target: T4, biotinylated human recombinant IL-12Rβ2 …; assay: BLI (Octet Red), periplasmic extract on biotinylated human IL-12Rβ2 on streptavidin tips, 1:1 model
[7] = molecular target: T3, biotinylated mouse recombinant IL-12Rβ2 …; assay: ELISA, periplasmic extract on biotinylated mouse IL-12Rβ2
[8] = molecular target: T5, human IL-12Rβ2 expressed on cells; assay: flow cytometry, periplasmic extract VHH-HA on HEK293T cells transiently expressing human IL-12Rβ2
[9] = molecular target: T4, biotinylated human recombinant IL-12Rβ2 …; assay: ELISA, periplasmic extract on biotinylated human IL-12Rβ2; signal over streptavidin control well
[10] = molecular target: T4, biotinylated human recombinant IL-12Rβ2 …; assay: BLI (Octet Red), periplasmic extract on biotinylated human IL-12Rβ2 on streptavidin tips

Binder	ELISA binding hIL-12RB2/control [1]	koff [2]	Response [3]	ELISA binding mIL-12RB2/control [4]	mIL12RB2/control (ELISA) [5]	koff [6]	binding result [7]	% cells bound [8]	dMFI [8]	hIL12RB2/control (ELISA) [9]	Response [10]
B1	4.57 ratio	0.00354 s⁻¹	0.479	0.937 ratio							
B2	3.45 ratio	0.00486 s⁻¹	0.426	1.38 ratio							
B3					0.98 ratio	0.00274 s⁻¹	no binding	50.5%	1380	3.65 ratio	0.294
B4	5.01 ratio	0.00636 s⁻¹	0.69	1.12 ratio							
B5	3.49 ratio	0.00383 s⁻¹	0.388	1.11 ratio							
B6					1.25 ratio	0.00272 s⁻¹	no binding	41.5%	870	7.85 ratio	0.203
B7					1.09 ratio	0.0034 s⁻¹	no binding	42.1%	941	5.08 ratio	0.222
B8						0.0043 s⁻¹	no binding	46%	1140		0.327
B9	3.32 ratio	0.00302 s⁻¹	0.163	1.08 ratio							
B10	6.45 ratio	0.0052 s⁻¹	0.565	1.18 ratio							
B11	16.1 ratio	0.00274 s⁻¹	0.426	1.77 ratio							
